Target: T1, FcεRIα (human, UniProt P12319 26-201)
T1 chain: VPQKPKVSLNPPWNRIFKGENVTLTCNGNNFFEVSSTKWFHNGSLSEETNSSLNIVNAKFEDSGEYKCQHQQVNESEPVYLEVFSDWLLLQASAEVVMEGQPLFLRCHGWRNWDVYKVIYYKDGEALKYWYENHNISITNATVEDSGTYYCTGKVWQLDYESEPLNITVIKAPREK
Assay: SPR; mammalian derived

B1: IgE-R419N-Fc3-4 (other)
chain: CADSNPRGVSAYLSRPSPFDLFIRKSPTITCLVVDLAPSKGTVNLTWSRASGKPVNHSTRKEEKQRNGTLTVTSTLPVGTRDWIEGETYQCNVTHPHLPRALMRSTTKTSGPRAAPEVYAFATPEWPGSRDKRTLACLIQNFMPEDISVQWLHNEVQLPDARHSTTQPRKTKGSGFFVFSRLEVTRAEWEQKDEFICRAVHEAASPSQTVQRAVSVNP
modifications: additional N-linked glycan at N419 (Asn-92 of SEQ ID NO: 2)
Kd: 2.26 nM
